Residue numbers refer to the chain shown, from its start. Read-outs that look alike come from different tables or passages of the source.
T1: mPDGFR-β (Mus musculus, UniProt P05622)
T1 construct: mPDGFR-β
T1 sequence (P05622 32-530): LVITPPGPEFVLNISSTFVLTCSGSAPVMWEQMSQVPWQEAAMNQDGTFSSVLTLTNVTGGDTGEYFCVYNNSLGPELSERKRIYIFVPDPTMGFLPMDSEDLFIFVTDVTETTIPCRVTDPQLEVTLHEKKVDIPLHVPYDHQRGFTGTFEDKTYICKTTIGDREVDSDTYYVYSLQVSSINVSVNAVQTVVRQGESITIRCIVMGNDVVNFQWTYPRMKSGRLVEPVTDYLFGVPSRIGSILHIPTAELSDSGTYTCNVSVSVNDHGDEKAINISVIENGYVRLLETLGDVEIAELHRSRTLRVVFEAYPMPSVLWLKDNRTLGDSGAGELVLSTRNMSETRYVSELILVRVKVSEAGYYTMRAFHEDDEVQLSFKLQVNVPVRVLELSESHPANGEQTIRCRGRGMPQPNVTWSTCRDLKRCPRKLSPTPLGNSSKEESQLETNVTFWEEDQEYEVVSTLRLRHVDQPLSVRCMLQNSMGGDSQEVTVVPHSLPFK

T2: mPDGFR-β and cotinine (Mus musculus, UniProt P05622)
T2 construct: mPDGFR-β
T2 sequence (P05622 32-530): T1 sequence (P05622 32-530)

B1: PRb-CC02: anti-mPDGFR-β scFv clone (VH SEQ ID NO 23, VL SEQ ID NO 24), tested as scFv-Cκ-anti-cotinine scFv bispecific antibody (antibody, V domains shown)
VH: AVTLDESGGGLQTPGGALSLVCKASGFTFSSYGMFWVRQAPGKGLEWVAGIDTGSGTNYGSAVKGRATISRDNGQSTVRLQLNNLRAEDTGTYFCTRGYAGTIDAWGHGTEVIVSSTS
VL: LTQPSSVSANPGETVKITCSGGGGSYGWYQQKSPGSAPVTVIYYNDKRPSDIPSRFSGSKSGSTGTLTITGVQAEDEAVYFCGSYNSSDSLFGAGTTLTVL
modifications: VH of PRb-CC02; VL of PRb-CC02
B2: PRb-CC03: anti-mPDGFR-β scFv clone (VH SEQ ID NO 31, VL SEQ ID NO 32), tested as scFv-Cκ-anti-cotinine scFv bispecific antibody (antibody, V domains shown)
VH: AVTLDESGGGLQTPGGTLSLVCKASGFTFSSYAMGWVRQAPGKGLEWVAGIDTAGGTAYGPAVKGRATISRDNGQSTVRLQLNNLRAEDTATYYCTRSSYIDTWGHGTEVIVSSTS
VL: B1 VL with G23T, G24Y, S25N, Y44W, F81Y, Y85S, N86D, D89G, S90L, L91I
modifications: VH of PRb-CC03; VL of PRb-CC03
B3: PRb-CC01: anti-mPDGFR-β scFv clone (VH SEQ ID NO 15, VL SEQ ID NO 16), tested as scFv-Cκ-anti-cotinine scFv bispecific antibody (antibody, V domains shown)
VH: AVTLDESGGGLQTPGGALSLVCKGSGFTFSSYNMGWVRQAPGKGLEFVAGISAADNSTAYGAAVDGRATISRDNGQSTVRLQLNNLRAEDTATYFCIRGGGSIDAWGHGTEVIVSS
VL: LTQPSSVSANLGGTVKITCSGGGSYYGWYQQKSPGSAPVTLIYYNDKRPSDIPSRFSGSKSGSTGTLTITGVQAEDEAVYFCGAWDNSAGYAGFGAGTTLTVL
modifications: VH of PRb-CC01; VL of PRb-CC01

Experiments:
[1] = persons treated with up to 1,800 mg for 4 consecutive days; cited from earlier work
[2] = rats; cited from earlier work
[3] = system: NIH3T3 cells; assay: cells; type: cell-based, mouse; conditions: for IC50: Mus musculus, NIH3T3, 72 h, NIH3T3 cells, 72 hours; for toxicity with the addition of mPDGF-BB: complex with cot-duo or cot-duo-cot; for toxicity with the addition of mPDGF-BB / toxicity compared to control anti-HER2 x cotinine scFv-Cκ-scFv: NIH3T3, FIG. 5; for toxicity compared to control anti-HER2 x cotinine scFv-Cκ-scFv: complex with cotinine-duocarmycin, with or without mPDGF-BB
Protocol: NIH3T3 cells were added to 50 μL of DMEM supplemented with 10% FBS and 1% penicillin/streptomycin, placed in a 96-well plate (CLS3595, Corning) and incubated overnight in 5% CO2 at 37° C. incubator. In each well containing 50 μL of cells, 50 μL of 50 anti-PDGFR-β x cotinine scFv-Cκ-scFv fusion protein (25.6 pM-2 μM) complexed with cot-duo or cot-duo-cot obtained in Experimental Example 10 was added and incubated for 72 hours in 5% CO2 at 37° C. incubator. To test mPDGF-BB on the toxic effect of the bispecific antibody of scFv-Cκ-scFv and the cotinine-duocarmycin complex, mPDGF-BB (2 nM) was added together with 50 μL of the bispecific antibody scFv-Cκ-scFv and the cotinine-duocarmycin complex. The mixed complexes were added to 50 μL of NIH3T3 cells.
The bispecific antibody of anti-HER2 x cotinine scFv-Cκ-scFv was used as a control. After 72 hours of incubation in the cells, 100 μL of Cell Titer-Glo reagents (Promega Corp., Madison, WI, USA) were added to all wells according to the manufacturer's instructions, and luminescence was measured in a luminometer (PerkinElmer, Waltham, MA, USA). The experiment was repeated 3 times. Relative viability was calculated with the following formula: [% viability=(luminescence of experimental well-luminescence of background well)/(luminescence of control-luminescence of background well)×100]. The wells containing only new medium were used as background wells.
To evaluate the toxicity of the complex of anti-mPDGFR-B x cotinine scFv-Cκ-scFv bispecific antibodies and cotinine duocarmycin (cot-duo, cot-duo-cot), the complexes were added to NIH3T3 cells in the presence/absence of mPDGF-BB. The ATP of the cells was measured for relative cell viability. The toxicity of the bispecific antibody of scFv-Cκ-scFv fusion antibody was shown by IC50 in Table 6 and FIG. 5.
It was carried out in the same manner as in Example 7, except that the bispecific antibody related with the anti-mPDGFR-β antibody and the bispecific antibody related with the anti-hPDGFR-β antibody prepared in Example 10 were used. FIG. 20a to FIG. 20b are graphs showing the difference in cytotoxic activity of PRb-CN01 and PRb-CN32 bispecific antibodies and cotinine-duocarmycin complexes in the cells expressing PDGFR-β. In FIG. 20b, an experiment was repeated in the presence of mPDGF-BB.

[4] = mice; conventional studies; cited from earlier work
[5] = combination of Olaratumab and doxorubicin compared to doxorubicin alone; cited from earlier work
[6] = target: PDGFR-β (Homo sapiens, UniProt P09619); conditions: cited from earlier work
Sequence of PDGFR-β (P09619 33-1106): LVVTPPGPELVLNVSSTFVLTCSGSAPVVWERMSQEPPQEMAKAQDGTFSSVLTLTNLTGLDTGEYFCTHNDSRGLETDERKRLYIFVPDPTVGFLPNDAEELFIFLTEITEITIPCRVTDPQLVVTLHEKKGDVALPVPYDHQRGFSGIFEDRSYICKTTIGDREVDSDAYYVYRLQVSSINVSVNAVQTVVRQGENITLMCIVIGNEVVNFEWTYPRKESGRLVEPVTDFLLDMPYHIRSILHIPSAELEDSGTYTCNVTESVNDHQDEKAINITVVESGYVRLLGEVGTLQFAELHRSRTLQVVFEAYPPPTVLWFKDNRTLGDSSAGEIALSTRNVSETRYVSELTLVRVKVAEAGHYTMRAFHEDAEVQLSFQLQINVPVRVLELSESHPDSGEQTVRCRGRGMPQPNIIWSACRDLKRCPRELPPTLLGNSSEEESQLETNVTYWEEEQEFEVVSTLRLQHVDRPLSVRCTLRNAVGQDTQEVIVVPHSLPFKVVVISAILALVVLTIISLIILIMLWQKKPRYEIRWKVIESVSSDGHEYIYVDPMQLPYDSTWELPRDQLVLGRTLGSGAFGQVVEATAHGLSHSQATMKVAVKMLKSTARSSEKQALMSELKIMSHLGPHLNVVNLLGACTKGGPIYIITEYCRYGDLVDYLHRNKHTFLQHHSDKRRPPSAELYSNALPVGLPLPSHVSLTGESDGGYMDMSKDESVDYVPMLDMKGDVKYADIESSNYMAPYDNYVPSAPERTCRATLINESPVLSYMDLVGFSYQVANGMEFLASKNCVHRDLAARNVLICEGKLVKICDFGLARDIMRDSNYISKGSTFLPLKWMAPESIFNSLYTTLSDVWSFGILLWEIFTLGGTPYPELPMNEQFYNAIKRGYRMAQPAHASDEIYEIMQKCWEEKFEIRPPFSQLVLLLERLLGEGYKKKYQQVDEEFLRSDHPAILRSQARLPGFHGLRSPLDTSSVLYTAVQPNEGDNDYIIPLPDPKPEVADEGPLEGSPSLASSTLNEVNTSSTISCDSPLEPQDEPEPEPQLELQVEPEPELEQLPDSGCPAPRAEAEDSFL

[7] = system: NIH3T3 cells; assay: Internalization analysis by confocal microscopy in NIH3T3 cells; type: cell-based, mouse; conditions: 10 μg/mL, 37° C., 30 minutes, FIG. 4c
Protocol: The bispecific antibody of scFv-Cκ-scFv fusion protein was analyzed with a confocal microscope for visualizing internalization. NIH3T3 cells were treated with the bispecific antibody of scFv-Cκ-scFv (10 μg/mL) diluted in DMEM containing 10% FBS, and internalized at 37° C. for 30 minutes. After washing the cells 3 times with cold PBS, acidic buffer (0.2 M acetic acid, 0.5 M sodium chloride) was treated at room temperature for 5 minutes to remove the antibody bound to the cell surface. Cells were washed twice with cold PBS, fixed with 4% paraformaldehyde for 10 minutes, and then subjected to immunofluorescence staining as previously described [J. M. Lim et al., J. Cell. Biol. 210 (2015) 23].
Briefly, to block antibodies having non-specific reaction, cells were incubated in PBS containing 5% horse serum and 0.1% Triton X-100 for 30 minutes, and 2 μg/mL FITC-anti human Cκ antibody (TB28-2, BD Biosciences) was added at room temperature for 30 minutes. To image the initial endosomes, the cells were washed 3 times with PBS, incubated with PBS containing 5% horse serum and 0.1% Triton X-100 for 30 minutes, and then incubated with ati-RabS antibody diluted to 1:200 (C8B1, Cell Signaling Technology, Danvers, MA, USA). Alexa Fluor 546 goat anti-rabbit IgG (A-11035, Invitrogen) was sequentially treated. Cells were treated with 0.2 μg/mL DAPI to detect DNA. Confocal microscopy images were obtained using a Zeiss LSM 880 microscope, and images were analyzed with Zen software (Carl Zeiss, Thornwood, NY, USA).
To measure the cellular internalization of the bispecific antibody of scFv-Cκ-scFv, anti-mPDGFR-β x cotinine scFv-Cκ-scFv fusion protein was incubated in NIH3T3 cells, and then treated with FITC-anti-human Cκ antibody and endosome-specific antibody. It was imaged using a confocal microscope. […] When the images were merged, the present inventors confirmed that the fluorescence of the three antibody clones and the endosome-specific antibody were co-localized.

[8] = target: T1, mPDGFR-β; assay: Competition enzyme immunoassay with mPDGF-BB; type: binding; conditions: mPDGF-BB 100 nM; FIG. 4a
Protocol: In order to confirm the competition between the bispecific antibody according to the present invention and mPDGF-BB, the microtiter plate was coated with mPDGFR-β-Fc chimera as mentioned above and then blocked. The microtiter plate was treated with various concentrations of the bispecific antibody (0.06 nM-1 μM) with or without addition of mPDGF-BB (100 nM), and then incubated at 37° C. for 2 hours. The washing, incubation, and detection were performed in the same manner as the enzyme immunoassay described above.
A competition enzyme immunoassay was developed to examine the effect of mPDGF-BB on the binding ability of anti-mPDGFR-β x cotinine scFv-Cκ-scFv fusion protein. The serially diluted bispecific antibodies (anti-mPDGFR-β scFv-Cκ-cotinine scFv) were incubated on wells coated with mPDGFR-β-Fc chimeric fusion protein with or without mPDGF-BB. HRP-anti-human Cκ antibody was incubated and then TMB was added. […] However, the binding ability of PRb-CN01 was not inhibited, so it confirmed that PRb-CN01 binds to mPDGFR-β in a noncompetitive manner to mPDGF-BB.

[9] = target: T2, mPDGFR-β and cotinine; assay: Enzyme immunoassay, simultaneous binding to cotinine and mPDGFR-β; conditions: cotinine-BSA coated wells, then mPDGFR-β-Fc chimera; FIG. 3d
Protocol: In order to confirm whether the bispecific antibody has simultaneous binding ability to both cotinine and mPDGFR-β, anti-mPDGFR-β x cotinine scFv-Cκ-scFv fusion protein was reacted in wells coated with cotinine-BSA. Washing was performed for each process, and mPDGFR-β-Fc chimeric protein and HRP-anti human Fc antibody were sequentially incubated.

| Molecule | toxicity with the addition of mPDGF-BB [3] | toxicity compared to control anti-HER2 x cotinine scFv-Cκ-scFv [3] | cellular internalization [7] | binding ability to mPDGFR-β in the presence of mPDGF-BB [8] | simultaneous binding to mPDGFR-β and cotinine [9] | also measured |
| --- | --- | --- | --- | --- | --- | --- |
| CN1C(=O)CC[C@H]1c1cccnc1 [Cotinine, cotinine] | – | – | – | – | – | adverse side effects [1]: no adverse side effects were induced; LD50 [2]: 4000 ± 100 mg/kg |
| COC(=O)c1cc2c([nH]1)C(=O)C=C1N(C(=O)c3cc4cc(OC)c(OC)c(OC)c4[nH]3)C[C@H]3C[C@]123 [Free duocarmycin, duocarmycin, reference compound] | – | – | – | – | – | IC50 ([3]; read-out: Cot-duo IC50 (nM), complex with cot-duo (DAR4), or conjugate/free drug alone, with mPDGF-BB (2 nM)): 23.8 nM; IC50 ([3]; read-out: Cot-duo IC50 (nM), complex with cot-duo (DAR4), or conjugate/free drug alone, without mPDGF-BB): 9.7 nM; IC50 ([3]; read-out: Cot-duo-cot IC50 (nM), complex with cot-duo-cot (DAR2), or conjugate/free drug alone, with mPDGF-BB (2 nM)): 60.3 nM; IC50 ([3]; read-out: Cot-duo-cot IC50 (nM), complex with cot-duo-cot (DAR2), or conjugate/free drug alone, without mPDGF-BB): 35.7 nM; weight loss [4]: induced significantly weight loss |
| Olaratumab: recombinant human IgG1 antibody against PDGFR-α | – | – | – | – | – | overall mean survival [5]: significantly improved overall mean survival compared to doxorubicin alone; cross-reactivity with PDGFR-β [6]: dose not cross-react with PDGFR-β |
| B1 | decreased with the addition of mPDGF-BB | showed toxicity compared to the control antibody and the non-internalizing antibody (PRb-CC01), but did not show statistical significance | Intracellular fluorescence was detected | inhibited in the presence of mPDGF-BB | simultaneously bound to mPDGFR-β and cotinine | – |
| B2 | decreased with the addition of mPDGF-BB | showed toxicity compared to the control antibody and the non-internalizing antibody (PRb-CC01), but did not show statistical significance | Intracellular fluorescence was detected | inhibited in the presence of mPDGF-BB | simultaneously bound to mPDGFR-β and cotinine | – |
| B3 | decreased with the addition of mPDGF-BB | – | not internalized | inhibited in the presence of mPDGF-BB | simultaneously bound to mPDGFR-β and cotinine | – |
